Literature values, collected in PMC12384831.
pKd: −log10 of the molar value. Several values for one entry are separate records, joined by “and”; a condition that tells them apart may be missing. Identical values can stand only once.

Molecular target: VISTA (Homo sapiens) (UniProt Q9H7M9)
Sequence of UniProt Q9H7M9 (Q9H7M9 33-194): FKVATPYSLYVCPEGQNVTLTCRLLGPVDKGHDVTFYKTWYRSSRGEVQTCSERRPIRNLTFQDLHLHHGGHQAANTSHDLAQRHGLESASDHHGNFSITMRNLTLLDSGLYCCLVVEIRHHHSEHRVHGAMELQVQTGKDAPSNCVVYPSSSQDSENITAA

pKd: 7.70 and 7.10
Substance: IGSF11 (from UniProt Q5DX21)
